Read-outs that look alike come from different tables or passages of the source.
T1: truncated variant of TgCEN1 lacking the first 21 residues (Δ21TgCEN1, 22–169) (Toxoplasma gondii, UniProt A0A125YHX7 22-169)
T1 sequence (looked up): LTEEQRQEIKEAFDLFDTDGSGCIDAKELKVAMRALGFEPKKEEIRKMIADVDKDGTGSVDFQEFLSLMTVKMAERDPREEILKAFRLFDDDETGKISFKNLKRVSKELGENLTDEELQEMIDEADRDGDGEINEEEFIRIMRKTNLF

T2: N-terminal domain of TgCEN1 lacking the first 21 residues (Δ21N-TgCEN1, 22–94 aa) (Toxoplasma gondii, UniProt A0A125YHX7 22-94)
T2 sequence (looked up): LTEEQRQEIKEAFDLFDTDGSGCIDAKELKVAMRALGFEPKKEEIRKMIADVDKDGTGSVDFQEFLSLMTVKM

B1: N-terminal domain of TgCEN1 (N-TgCEN1, 1–94 aa) (domain or fragment, Toxoplasma gondii, UniProt A0A125YHX7 1-94, looked up)
chain: MHSRKGASSLPRGRGAGKKTELTEEQRQEIKEAFDLFDTDGSGCIDAKELKVAMRALGFEPKKEEIRKMIADVDKDGTGSVDFQEFLSLMTVKM
B2: C-terminal domain of TgCEN1 (C-TgCEN1, 95–169 aa) (domain or fragment)
chain: not shown

How the values were obtained:
[1] = molecular target: the molecule itself; assay: dynamic light scattering
[2] = molecular target: T1, truncated variant of TgCEN1 lacking the …; assay: ITC
[3] = molecular target: B2; assay: ITC
[4] = molecular target: T1, truncated variant of TgCEN1 lacking the …; assay: ITC; remark: listed apart in the source
[5] = molecular target: T2, N-terminal domain of TgCEN1 lacking the …; assay: ITC
[6] = molecular target: B2; assay: ITC; remark: listed apart in the source
[7] = molecular target: the molecule itself; assay: dynamic light scattering; remark: listed apart in the source

B1: binds [1].

In the case of NWKLLAKGLLIRERLKR [P17-XPC peptide (17-residue peptide of the human xeroderma pigmentosum group C protein, N847-R863)], the Kd [2] is reported as 59.1 nM, the dH [2] is reported as -31.5 kcal/mol and the “stoichiometry N” value [2] is reported as 0.9. The Kd [3] was 50.1 nM, the dH [3] was -28.4 kcal/mol and the “stoichiometry N” value [3] was 0.8. The “dH of site 1 (high-affinity site, two-site model)” value [4] was -23.8 kcal/mol, the “dH of site 2 (low-affinity site, two-site model)” value [4] was -12.1 kcal/mol and the Kd [5] was 396 nM. The dH [5] was -17.7 kcal/mol, the “stoichiometry N” value [5] was 0.7 and the Kd [6] was 6.7 nM. For the same binder, the dH [6] was -22.9 kcal/mol and the “stoichiometry N” value [6] was 0.8.

B2: binds [7].

Source: PMC8286830 (Biochemical Journal, 2021)
